Values of other authors as cited in paper PMC3505834.

Biological target: C3b C3b (Homo sapiens) (UniProt P01024)
Sequence (P01024 566-670): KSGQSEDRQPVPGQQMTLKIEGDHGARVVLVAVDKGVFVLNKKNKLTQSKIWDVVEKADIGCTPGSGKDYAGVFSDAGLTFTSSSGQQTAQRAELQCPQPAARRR

Sequence of CD46 (P15529 35-343): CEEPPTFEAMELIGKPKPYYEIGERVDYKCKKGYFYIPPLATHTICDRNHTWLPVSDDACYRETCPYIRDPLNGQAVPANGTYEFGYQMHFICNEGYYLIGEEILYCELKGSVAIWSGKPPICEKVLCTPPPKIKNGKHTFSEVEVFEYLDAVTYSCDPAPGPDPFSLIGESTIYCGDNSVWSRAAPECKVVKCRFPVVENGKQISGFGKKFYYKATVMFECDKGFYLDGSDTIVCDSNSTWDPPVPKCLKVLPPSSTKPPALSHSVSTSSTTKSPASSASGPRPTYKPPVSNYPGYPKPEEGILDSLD

- Kd: 1000 nM
Substance: CD46 (from UniProt P15529)
